Experiments:
CD5L (CD5 antigen-like) [1] = target: T1, CD5L (CD5 antigen-like) (Homo sapiens, UniProt O43866 O43866:20-347); test: MST; pH 7.4, 1 mM MgCl2, 0.1% Tween20; settings: tags: His-tagged, Sino Biological 10791-H08H; fluorescently labeled for MST except with Cy5-S76.T; predicted hairpin
T1 sequence: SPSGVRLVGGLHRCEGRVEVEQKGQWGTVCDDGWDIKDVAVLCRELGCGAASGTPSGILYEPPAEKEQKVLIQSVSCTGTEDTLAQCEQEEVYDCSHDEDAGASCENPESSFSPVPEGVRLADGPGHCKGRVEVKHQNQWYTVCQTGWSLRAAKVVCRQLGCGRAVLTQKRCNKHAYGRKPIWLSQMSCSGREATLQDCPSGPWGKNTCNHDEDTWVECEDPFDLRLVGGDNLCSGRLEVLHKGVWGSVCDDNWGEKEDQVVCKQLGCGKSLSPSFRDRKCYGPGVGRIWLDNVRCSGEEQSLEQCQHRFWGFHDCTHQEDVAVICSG
Method: (§1) Regarding the three sequences of the second selection, S11 and S23 sequences were incubated with constant concentration (1 nM) of labeled CD5L purified recombinant protein (Sino Biological Inc., Beijing, China) or labeled VEGF scrambled protein used as negative control (R&D System). S11 and S23 were diluted 1:1 (from 15000 to 0.05 nM) in binding buffer (pH 7.4, 1 mM MgCl2, 0.1% Tween20). S76 sequence was diluted 1:1 in Tris-buffered saline (TBS) from 1000 nM to 0.03 nM. S76.T was labeled with Cy5 and the concentration was kept constant at 2 nM. CD5L was diluted from 2000 nM to 0.06 nM in 50 mM Tris-HCl pH 7.8, 150 mM NaCl, 0.05% Tween20. 5 μl of each dilution step were mixed with 5 μl of the labeled CD5L or VEGF. The final reaction mixture contained a respective amount of aptamer sequences and constant 1 nM labeled CD5L or VEGF.

CD5L (CD5 antigen-like) [2] = target: T1, CD5L (CD5 antigen-like); test: MST; TBS; 1 nM labeled CD5L; settings: tags: His-tagged, Sino Biological 10791-H08H; fluorescently labeled for MST except with Cy5-S76.T; predicted hairpin
Method: as §1

CD5L (CD5 antigen-like) [3] = target: T1, CD5L (CD5 antigen-like); test: MST; PBS pH 7.4, 1 mM MgCl2, 0.05% Tween20; settings: tags: His-tagged, Sino Biological 10791-H08H; fluorescently labeled for MST except with Cy5-S76.T; three predicted hairpins followed by single-strand ends
Method: A serial dilution of S5, S47, S63 and S72 was prepared in specific buffer composed by PBS pH 7.4, 1 mM of MgCl2 and 0.05% Tween20. The highest concentration used was 18000 nM and the lowest 0.54 nM. 4 μl of each dilution step were mixed with 4 μl of the labeled molecule CD5L purified recombinant protein (Sino Biological Inc., Beijing, China) or VEGF scrambled protein used as negative control (R&D System) (constant concentration of 12.5 nM).

CD5L (CD5 antigen-like) [4] = target: T1, CD5L (CD5 antigen-like); test: MST; 50 mM Tris-HCl pH 7.8, 150 mM NaCl, 10 mM MgCl2, 0.05% Tween-20; 2 nM Cy5-S76.T; settings: tags: His-tagged, Sino Biological 10791-H08H; fluorescently labeled for MST except with Cy5-S76.T; label: Cy5 (MST); hairpin
Method: For Cy5 labeled S76.T, a serial dilution of CD5L was prepared in the buffer composed by 50 mM Tris-HCl pH7.8, 150 mM NaCl, 10 mM MgCl2, 0.05 Tween-20. The highest concentration of CD5L was 2000 nM and the lowest 0.06 nM. 4 μl of each dilution step were mixed with 4 μl of the Cy5 labeled S76 truncated (4 nM stock). The final reaction mixture, which was filled in standard capillaries, contained a respective amount of CD5L (max. conc. 1000 nM, min conc. 0.03 nM) and constant 2 nM labeled S76 truncated MST measurement was obtained using Monolith NT.115 (NanoTemper Technologies GmbH, Munich, Germany) with standard capillaries. KD was determined as described by (Stoltenburg et al., 2015).

B1: S23 (ssRNA)
RNA: AGACAAGAAUAAACGCUCAAAAAGAGAGAAGGAUAAGAACCAUCAAAAAGAGAGAGCAGAGCCAGAUUCGACAGGAGGCUCACAACAGGC
modifications: 2'-F pyrimidines
B1 was tested, and the Kd (CD5L (CD5 antigen-like) [1]) was 92.1 nM.

B2: S11 (ssRNA)
RNA: AGACAAGAAUAAACGCUCAAUUAUCGGAGAGGCCGAACAGAUACUUCGUUAGACACCUUGCAGCGUUCGACAGGAGGC
modifications: 2'-F pyrimidines
For B2, the Kd (CD5L (CD5 antigen-like) [1]) was 59.2 nM.

B3: S76 (ssRNA)
RNA: AGACAAGAAUAAACGCUCAAUUAUCGGAGAGGCCGAACAGAUACUUCGUUAGACAGGUUGCAGCGUUCGACAGGAGGCUCACAACAGGC
modifications: 2'-F pyrimidines
For B3, the Kd (CD5L (CD5 antigen-like) [2]) was 2.2 nM.

B4: S5 (ssRNA)
RNA: AGACAAGAAUAAACGCUCAAGCGAAGGUGUGACCACAAACCACAUAAAGGCAAGGUCGCGCCGCGUUCGACAGGAGGCUCACAACAGGC
modifications: 2'-F pyrimidines
B4 showed a Kd (CD5L (CD5 antigen-like) [3]) of 556 nM.

AGGUUGCAGCGUUCGACAGGAGGCUCACAACAG (ssRNA, 2'-F pyrimidines) [S76.T] showed a Kd (CD5L (CD5 antigen-like) [4]) of 10.1 nM.

— patent publication US20230167453, “RNA APTAMERS AND USE THEREOF FOR TREATING CANCER” (Board of Regents, The University of Texas System, published 2023)
